Details in all cases: EMSA: 0.2 uM 5'-labelled RNA (90 C 2 min, slow cool to 37 C), yeast tRNA 0.1 ug/reaction, Hfq hexamer 0-500 nM, structure buffer (Ambion), 10 min at 37 C, then …
For series [1], the target named is Hfq (Escherichia coli) (UniProt P0A6X3). The experiment in a line: EMSA. For orientation: A gel shift assay detects complexes by their altered migration in electrophoresis.
The target is the same in series [2]. The experiment in a line: footprinting (lead acetate).
Series [3] relates to Hfq (Escherichia coli). The series can be described thus: EMSA.

Hfq (Escherichia coli) (UniProt P0A6X3), sequence (P0A6X3 whole entry): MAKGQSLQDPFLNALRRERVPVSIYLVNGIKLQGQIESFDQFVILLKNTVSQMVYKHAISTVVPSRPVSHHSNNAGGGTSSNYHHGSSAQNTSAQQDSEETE

The term Kd denotes the free concentration of one partner at which half of the binding sites on the other are occupied at equilibrium, for simple one-to-one binding. In series [1], “GGAUACGCACAAUAAGGCUAUUGUACGUAUGCAGGCCGGCAAUAAAGGAGAGUAGCAAUGUCAUUCGAAUUACCUGCACUACCAUAUGCUAAAGAUGCUCUGGCACCGCACAUUUCUGCGGAAACCAUCGAGGAUCCCUAGC [sodB130MH]” registered a Kd of 314 nM.
“GGAUACGCACAAUAAGGCUAUUGUACGUAUGCAAAUUAAUAAUAAAGGAGAGUAGCAAUGUCAUUCGAAUUACCUGCACUACCAUAUGCUAAAGAUGCUCUGGCACCGCACAUUUCUGCGGAAACCAUCGAGGAUCCCUAGC [sodB130]” had a Kd in series [1] of 156 nM. Further, the binding result in series [2] was “binds”.
In series [3], sodB130 displayed a Kd of 156 nM.
